Test results: the supplement of paper PMC6757056
± gives the standard deviation of the averaged measurements.

B1: library; a variant is named by its letters at N, in order (parent)
chain: GCUGUCACCGGUGUAUUACCCUAGUGGUCGACCGGUCUGAUGAGUCUNNNNNNAGACGAAACAGC

What was measured:
hypoxanthine [1] = variants of: B1; assay: FACS-Seq fitted mean relative fluorescence mCherry/BFP without ligand (log10 relative fluorescence); ligand: hypoxanthine (xanthine aptamer); higher = higher reporter protein expression; conditions: HEK293T, ligand present: no
Method: (§1)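 Hammerhead (sTRSV) ribozyme switch libraries with a ligand aptamer grafted on stem I and a randomized N4-6 loop II, cloned into the 3' UTR of mCherry and transiently transfected into HEK293T cells; RNA-Seq 72 h post transfection with ligand added 1 h before transfection; RNA read count / plasmid DNA read count normalized to the non-cleaving sTRSVctl (x100), log10; sequences with >100 DNA reads. FACS-Seq: lentiviral library sorted into 6 bins after 48 h ligand, log-normal fit mean of mCherry/BFP scaled to controls. Printed sequences are partial switch sequences.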

hypoxanthine [2] = variants of: B1; assay: normalized RNA/DNA level with ligand (relative to sTRSVctl = 100) (log10 (% of sTRSVctl)); ligand: hypoxanthine (xanthine aptamer); higher = less ribozyme self-cleavage, higher mRNA level; conditions: ligand concentration (+) RNA-Seq: 5 mM, HEK293T, reporter: mCherry (pCS4076), ligand present: yes
Method: as §1

hypoxanthine [3] = variants of: B1; assay: normalized RNA/DNA level without ligand (relative to sTRSVctl = 100) (log10 (% of sTRSVctl)); ligand: hypoxanthine (xanthine aptamer); higher = less ribozyme self-cleavage, higher mRNA level; conditions: HEK293T, reporter: mCherry (pCS4076), ligand present: no
Method: as §1

hypoxanthine [4] = variants of: B1; assay: FACS-Seq fitted mean relative fluorescence mCherry/BFP with ligand (log10 relative fluorescence); ligand: hypoxanthine (xanthine aptamer); ligand concentration (+) FACS-Seq: 5 mM; higher = higher reporter protein expression; conditions: HEK293T, ligand present: yes
Method: as §1

Variant: GCUGUCACCGGUGUAUUACCCUAGUGGUCGACCGGUCUGAUGAGUCUUACGCAAGACGAAACAGC [UACGCA]
- FACS-Seq fitted mean (log10) (hypoxanthine [1]): -0.76 ± 0.081
- normalized RNA/DNA level with ligand (log10) (hypoxanthine [2]): 1.924 ± 0.0096
- normalized RNA/DNA level without ligand (log10) (hypoxanthine [3]): 1.82 ± 0.019
- FACS-Seq fitted mean (log10) (hypoxanthine [4]): -0.297 ± 0.075

Variant: GCUGUCACCGGUGUAUUACCCUAGUGGUCGACCGGUCUGAUGAGUCUGACGAUAGACGAAACAGC [GACGAU]
- FACS-Seq fitted mean (log10) (hypoxanthine [1]): 0.412 ± 0.021
- normalized RNA/DNA level with ligand (log10) (hypoxanthine [2]): 1.91 ± 0.027
- normalized RNA/DNA level without ligand (log10) (hypoxanthine [3]): 1.75 ± 0.023
- FACS-Seq fitted mean (log10) (hypoxanthine [4]): 0.672 ± 0.053

Variant: GCUGUCACCGGUGUAUUACCCUAGUGGUCGACCGGUCUGAUGAGUCUGACGAAAGACGAAACAGC [GACGAA]
- FACS-Seq fitted mean (log10) (hypoxanthine [1]): 0.408 ± 0.047
- normalized RNA/DNA level with ligand (log10) (hypoxanthine [2]): 1.9 ± 0.056
- normalized RNA/DNA level without ligand (log10) (hypoxanthine [3]): 1.7 ± 0.0095
- FACS-Seq fitted mean (log10) (hypoxanthine [4]): 0.566 ± 0.012

Variant: GCUGUCACCGGUGUAUUACCCUAGUGGUCGACCGGUCUGAUGAGUCUGACGACAGACGAAACAGC [GACGAC]
- FACS-Seq fitted mean (log10) (hypoxanthine [1]): -0.384 ± 0.063
- normalized RNA/DNA level with ligand (log10) (hypoxanthine [2]): 1.9292 ± 0.0013
- normalized RNA/DNA level without ligand (log10) (hypoxanthine [3]): 1.67 ± 0.017
- FACS-Seq fitted mean (log10) (hypoxanthine [4]): -0.465 ± 0.092

Variant: GCUGUCACCGGUGUAUUACCCUAGUGGUCGACCGGUCUGAUGAGUCUGACGAGAGACGAAACAGC [GACGAG]
- FACS-Seq fitted mean (log10) (hypoxanthine [1]): 0.184 ± 0.028
- normalized RNA/DNA level with ligand (log10) (hypoxanthine [2]): 1.76 ± 0.056
- normalized RNA/DNA level without ligand (log10) (hypoxanthine [3]): 1.31 ± 0.017
- FACS-Seq fitted mean (log10) (hypoxanthine [4]): 0.597 ± 0.026

Variant: GCUGUCACCGGUGUAUUACCCUAGUGGUCGACCGGUCUGAUGAGUCUGACGCUAGACGAAACAGC [GACGCU]
- FACS-Seq fitted mean (log10) (hypoxanthine [1]): 0.261 ± 0.12
- normalized RNA/DNA level with ligand (log10) (hypoxanthine [2]): 1.94 ± 0.037
- normalized RNA/DNA level without ligand (log10) (hypoxanthine [3]): 1.893 ± 0.0077
- FACS-Seq fitted mean (log10) (hypoxanthine [4]): 0.508 ± 0.048

Variant: GCUGUCACCGGUGUAUUACCCUAGUGGUCGACCGGUCUGAUGAGUCUAACGGAAGACGAAACAGC [AACGGA]
- FACS-Seq fitted mean (log10) (hypoxanthine [1]): 0.375 ± 0.033
- normalized RNA/DNA level with ligand (log10) (hypoxanthine [2]): 1.917 ± 0.01
- normalized RNA/DNA level without ligand (log10) (hypoxanthine [3]): 1.62 ± 0.035
- FACS-Seq fitted mean (log10) (hypoxanthine [4]): 0.525 ± 0.041

Variant: GCUGUCACCGGUGUAUUACCCUAGUGGUCGACCGGUCUGAUGAGUCUAACGGCAGACGAAACAGC [AACGGC]
- FACS-Seq fitted mean (log10) (hypoxanthine [1]): 0.644 ± 0.088
- normalized RNA/DNA level with ligand (log10) (hypoxanthine [2]): 1.95 ± 0.02
- normalized RNA/DNA level without ligand (log10) (hypoxanthine [3]): 1.816 ± 0.012
- FACS-Seq fitted mean (log10) (hypoxanthine [4]): 0.696 ± 0.074

Variant: GCUGUCACCGGUGUAUUACCCUAGUGGUCGACCGGUCUGAUGAGUCUAACGCGAGACGAAACAGC [AACGCG]
- FACS-Seq fitted mean (log10) (hypoxanthine [1]): -0.0882 ± 0.017
- normalized RNA/DNA level with ligand (log10) (hypoxanthine [2]): 1.812 ± 0.011
- normalized RNA/DNA level without ligand (log10) (hypoxanthine [3]): 1.33 ± 0.08
- FACS-Seq fitted mean (log10) (hypoxanthine [4]): 0.162 ± 0.024

Variant: GCUGUCACCGGUGUAUUACCCUAGUGGUCGACCGGUCUGAUGAGUCUAACGCCAGACGAAACAGC [AACGCC]
- FACS-Seq fitted mean (log10) (hypoxanthine [1]): 0.0156 ± 0.023
- normalized RNA/DNA level with ligand (log10) (hypoxanthine [2]): 1.94 ± 0.048
- normalized RNA/DNA level without ligand (log10) (hypoxanthine [3]): 1.84 ± 0.037
- FACS-Seq fitted mean (log10) (hypoxanthine [4]): 0.1 ± 0.21

Variant: GCUGUCACCGGUGUAUUACCCUAGUGGUCGACCGGUCUGAUGAGUCUAACGCUAGACGAAACAGC [AACGCU]
- FACS-Seq fitted mean (log10) (hypoxanthine [1]): 0.624 ± 0.015
- normalized RNA/DNA level with ligand (log10) (hypoxanthine [2]): 1.94 ± 0.032
- normalized RNA/DNA level without ligand (log10) (hypoxanthine [3]): 1.85 ± 0.023
- FACS-Seq fitted mean (log10) (hypoxanthine [4]): 0.548 ± 0.11

Variant: GCUGUCACCGGUGUAUUACCCUAGUGGUCGACCGGUCUGAUGAGUCUCACCUUAGACGAAACAGC [CACCUU]
- FACS-Seq fitted mean (log10) (hypoxanthine [1]): -0.395 ± 0.03
- normalized RNA/DNA level with ligand (log10) (hypoxanthine [2]): 1.97 ± 0.03
- normalized RNA/DNA level without ligand (log10) (hypoxanthine [3]): 1.87 ± 0.044
- FACS-Seq fitted mean (log10) (hypoxanthine [4]): -0.0406 ± 0.045

Variant: GCUGUCACCGGUGUAUUACCCUAGUGGUCGACCGGUCUGAUGAGUCUCACGCUAGACGAAACAGC [CACGCU]
- FACS-Seq fitted mean (log10) (hypoxanthine [1]): 0.785 ± 0.049
- normalized RNA/DNA level with ligand (log10) (hypoxanthine [2]): 1.93 ± 0.034
- normalized RNA/DNA level without ligand (log10) (hypoxanthine [3]): 1.87 ± 0.021
- FACS-Seq fitted mean (log10) (hypoxanthine [4]): 0.774 ± 0.079

Variant: GCUGUCACCGGUGUAUUACCCUAGUGGUCGACCGGUCUGAUGAGUCUUACGGAAGACGAAACAGC [UACGGA]
- FACS-Seq fitted mean (log10) (hypoxanthine [1]): 0.543 ± 0.045
- normalized RNA/DNA level with ligand (log10) (hypoxanthine [2]): 1.927 ± 0.0098
- normalized RNA/DNA level without ligand (log10) (hypoxanthine [3]): 1.59 ± 0.03
- FACS-Seq fitted mean (log10) (hypoxanthine [4]): 0.703 ± 0.039

Variant: GCUGUCACCGGUGUAUUACCCUAGUGGUCGACCGGUCUGAUGAGUCUAACGACAGACGAAACAGC [AACGAC]
- FACS-Seq fitted mean (log10) (hypoxanthine [1]): 0.305 ± 0.007
- normalized RNA/DNA level with ligand (log10) (hypoxanthine [2]): 1.94 ± 0.02
- normalized RNA/DNA level without ligand (log10) (hypoxanthine [3]): 1.79 ± 0.028
- FACS-Seq fitted mean (log10) (hypoxanthine [4]): 0.279 ± 0.064

Variant: GCUGUCACCGGUGUAUUACCCUAGUGGUCGACCGGUCUGAUGAGUCUAACGAGAGACGAAACAGC [AACGAG]
- FACS-Seq fitted mean (log10) (hypoxanthine [1]): 0.131 ± 0.0019
- normalized RNA/DNA level with ligand (log10) (hypoxanthine [2]): 1.75 ± 0.031
- normalized RNA/DNA level without ligand (log10) (hypoxanthine [3]): 1.22 ± 0.062
- FACS-Seq fitted mean (log10) (hypoxanthine [4]): 0.553 ± 0.084

Variant: GCUGUCACCGGUGUAUUACCCUAGUGGUCGACCGGUCUGAUGAGUCUAACGAAAGACGAAACAGC [AACGAA]
- FACS-Seq fitted mean (log10) (hypoxanthine [1]): -0.1232 ± 0.00029
- normalized RNA/DNA level with ligand (log10) (hypoxanthine [2]): 1.88 ± 0.068
- normalized RNA/DNA level without ligand (log10) (hypoxanthine [3]): 1.67 ± 0.042
- FACS-Seq fitted mean (log10) (hypoxanthine [4]): -0.425 ± 0.21

Variant: GCUGUCACCGGUGUAUUACCCUAGUGGUCGACCGGUCUGAUGAGUCUCACGAAAGACGAAACAGC [CACGAA]
- FACS-Seq fitted mean (log10) (hypoxanthine [1]): 0.226 ± 0.02
- normalized RNA/DNA level with ligand (log10) (hypoxanthine [2]): 1.87 ± 0.02
- normalized RNA/DNA level without ligand (log10) (hypoxanthine [3]): 1.72 ± 0.037
- FACS-Seq fitted mean (log10) (hypoxanthine [4]): 0.363 ± 0.022

Variant: GCUGUCACCGGUGUAUUACCCUAGUGGUCGACCGGUCUGAUGAGUCUUACGAGAGACGAAACAGC [UACGAG]
- FACS-Seq fitted mean (log10) (hypoxanthine [1]): 0.145 ± 0.0054
- normalized RNA/DNA level with ligand (log10) (hypoxanthine [2]): 1.88 ± 0.069
- normalized RNA/DNA level without ligand (log10) (hypoxanthine [3]): 1.4 ± 0.058
- FACS-Seq fitted mean (log10) (hypoxanthine [4]): 0.382 ± 0.014

Variant: GCUGUCACCGGUGUAUUACCCUAGUGGUCGACCGGUCUGAUGAGUCUUACGAAAGACGAAACAGC [UACGAA]
- FACS-Seq fitted mean (log10) (hypoxanthine [1]): 0.0406 ± 0.024
- normalized RNA/DNA level with ligand (log10) (hypoxanthine [2]): 1.9122 ± 0.00026
- normalized RNA/DNA level without ligand (log10) (hypoxanthine [3]): 1.69 ± 0.013
- FACS-Seq fitted mean (log10) (hypoxanthine [4]): 0.191 ± 0.012

Variant: GCUGUCACCGGUGUAUUACCCUAGUGGUCGACCGGUCUGAUGAGUCUUACGAUAGACGAAACAGC [UACGAU]
- FACS-Seq fitted mean (log10) (hypoxanthine [1]): 0.105 ± 0.066
- normalized RNA/DNA level with ligand (log10) (hypoxanthine [2]): 1.92 ± 0.041
- normalized RNA/DNA level without ligand (log10) (hypoxanthine [3]): 1.715 ± 0.015
- FACS-Seq fitted mean (log10) (hypoxanthine [4]): -0.543 ± 0.12
